Some targets named below: human IGF-1R (human) (UniProt P08069); human IGF-1 (human) (UniProt P05019); human IGF-2 (human) (UniProt P01344).
What all share (assay): cell-based or functional assay

human IGF-1R (human), sequence (P08069 31-1367): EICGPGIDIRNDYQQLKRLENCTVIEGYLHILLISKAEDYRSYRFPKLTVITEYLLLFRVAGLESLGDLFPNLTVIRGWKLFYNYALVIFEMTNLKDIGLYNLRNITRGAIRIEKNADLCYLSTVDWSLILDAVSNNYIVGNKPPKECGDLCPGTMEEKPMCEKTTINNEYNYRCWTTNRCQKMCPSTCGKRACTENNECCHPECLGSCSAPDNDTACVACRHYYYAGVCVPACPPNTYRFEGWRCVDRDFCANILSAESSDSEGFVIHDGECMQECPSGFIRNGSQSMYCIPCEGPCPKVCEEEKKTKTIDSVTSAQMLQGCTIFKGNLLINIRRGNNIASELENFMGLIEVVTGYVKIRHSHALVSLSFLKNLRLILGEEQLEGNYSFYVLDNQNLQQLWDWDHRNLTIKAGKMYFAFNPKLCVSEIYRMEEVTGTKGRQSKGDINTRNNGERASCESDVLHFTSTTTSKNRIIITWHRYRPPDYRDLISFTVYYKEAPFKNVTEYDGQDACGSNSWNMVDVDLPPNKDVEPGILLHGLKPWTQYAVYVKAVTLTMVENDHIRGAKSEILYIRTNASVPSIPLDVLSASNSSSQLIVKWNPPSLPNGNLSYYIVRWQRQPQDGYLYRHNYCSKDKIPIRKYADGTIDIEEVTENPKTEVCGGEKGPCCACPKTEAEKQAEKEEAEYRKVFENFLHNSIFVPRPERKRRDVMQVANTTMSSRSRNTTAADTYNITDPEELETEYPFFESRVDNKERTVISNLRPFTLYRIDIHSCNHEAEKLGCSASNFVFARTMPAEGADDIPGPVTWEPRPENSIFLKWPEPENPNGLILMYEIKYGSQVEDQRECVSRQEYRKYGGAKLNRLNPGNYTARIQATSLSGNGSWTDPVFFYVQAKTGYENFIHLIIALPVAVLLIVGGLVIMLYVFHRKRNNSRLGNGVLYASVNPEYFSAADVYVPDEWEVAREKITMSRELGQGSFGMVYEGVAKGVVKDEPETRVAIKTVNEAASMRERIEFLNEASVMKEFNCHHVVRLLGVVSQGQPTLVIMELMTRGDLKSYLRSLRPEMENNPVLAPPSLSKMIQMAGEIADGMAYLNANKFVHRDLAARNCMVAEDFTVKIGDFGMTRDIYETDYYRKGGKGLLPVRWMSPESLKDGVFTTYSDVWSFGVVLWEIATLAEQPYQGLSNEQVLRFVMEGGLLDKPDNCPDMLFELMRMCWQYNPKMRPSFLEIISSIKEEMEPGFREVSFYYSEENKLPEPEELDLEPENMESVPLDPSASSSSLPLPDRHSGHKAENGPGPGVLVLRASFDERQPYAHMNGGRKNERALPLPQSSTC
human IGF-2 (human), sequence (P01344 25-91 limits assumed): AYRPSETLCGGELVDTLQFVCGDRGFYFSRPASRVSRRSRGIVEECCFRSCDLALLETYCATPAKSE
human IGF-1 (human), sequence (P05019 49-118): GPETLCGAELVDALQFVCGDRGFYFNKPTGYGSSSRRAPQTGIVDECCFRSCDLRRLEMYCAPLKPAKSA

In the case of “IGF-1R antibody αIR-3 (Calbiochem, No. GR11L)”, in the experiment with human IGF-1R (human), the % Remaining Phosphorylation at 15 µg/mL (100 nM) Inhibitor; IGF-1 (20 ng/mL) induced IGF-1R phosphorylation is 35%; the % Remaining Phosphorylation at 15 µg/mL (100 nM) Inhibitor; IGF-2 (100 ng/mL) induced IGF-1R phosphorylation is 76%; the % Remaining Phosphorylation at 15 µg/mL (100 nM) Inhibitor; human serum (20%) induced IGF-1R phosphorylation came to 120%; the IC50 of IGF-1 (20 ng/mL) induced IGF-1R phosphorylation, cell based ELISA was found to be 1.16 µg/mL. In the experiment with human IGF-1R (human), the IC50 of IGF-2 (100 ng/mL) induced IGF-1R phosphorylation, cell based ELISA was more than 15 µg/mL and the IC50 of human serum (20%) induced IGF-1R phosphorylation, cell based ELISA is more than 15 µg/mL.

In turn, Control IgG (antibody) returned a % Remaining Phosphorylation at 15 µg/mL (100 nM) Inhibitor; IGF-1 (20 ng/mL) induced IGF-1R phosphorylation with human IGF-1 (human) of 108%. In the experiment with human IGF-2 (human), this substance returned a % Remaining Phosphorylation at 15 µg/mL (100 nM) Inhibitor; IGF-2 (100 ng/mL) induced IGF-1R phosphorylation of 108%; a % Remaining Phosphorylation at 15 µg/mL (100 nM) Inhibitor; IGF-2 (100 ng/mL) induced IR-A phosphorylation of 109%; an IC50 of IGF-2 (100 ng/mL) induced IGF-1R phosphorylation, cell based ELISA of more than 15 µg/mL; an IC50 of IGF-2 (100 ng/mL) induced IR-A phosphorylation, cell based ELISA of more than 15 µg/mL.
